According to patent US20210292423A1 (published 2021):
Numbering of substitutions follows the chain as printed.

B1: 9F6-G3 anti-CD123 rat IgG (hybridoma supernatant) (antibody, V domains shown)
VH: QVQLQESGPTLVKPGDSVKMSCKASGYTFTDYIIHWVKQSHGKSLEWIGYINPYSDGTNYNEKFKSKATLTVDKSTSTAYMEFSRLTSEDSAIYFCALNYGSYYAMDAWGQGTSVTVSS
VL: DIQMTQSPASLSASLGETVTIECRPSEDIHSNVAWYQQKPGNSPQLLIYDASNLADGVPSRFSGSGSGTQYSLKINSLQSEDVASYFCHQYNIYPYTFGSGTKLELK
notes: rat IgG; also called BFX - 9F6
B2: 9B8-G6 anti-CD123 rat IgG (hybridoma supernatant) (antibody, V domains shown)
VH: EVKLQESGPSLVQSSQTLSLTCTVSGFSLTSYHIHWVRQPPGKGLEWMGVMWSDGDTSYSSALKSRLSISRDTSQSQVFLKMNSLQTEDTATYYCARGDYSSYIYLWFAYWGQGTLVTVSS
VL: DIVMTQSPSSLAVSAGETVTINCKSSQSFLSSGDERNYVAWYQHKPGQSPKLLIYWASTRHSGVPDRFIGSGSGTDFTLTISSVQAEDLAIYYCQQYYDTPLTFGSGTKLEIK
notes: rat IgG; also called BFX - 9B8
B3: 9D7-C8 anti-CD123 rat IgG (hybridoma supernatant) (antibody, V domains shown)
VH: B2 VH with P40T, S60N, D99Y, I104L
VL: B2 VL with A15E, E35G, R36K, H44Y, H61Q, S83T
notes: rat IgG; also called BFX - 9D7
B4: 18G9-H11 Fab (Fab, V domains shown)
VH: EVQLVETGGSLVQPGKSLKLTCATSGFTFSNAWIQWVRQSPEKQLEWVAQIKAKSNNYATYYAESVKGRFTISRDDSKSSVYLQMNSLKEEDTALYYCTWRHYYSSHTMDAWGQGTLVTVSS
VL: DVVMTQTPVSLSVSLGGQVSISCRSSQSLVHNNGNTYLSWYLQKPGQSPQLLIYKVSNRFSGISDRFSGSGSGTDFTLKISRVAPTDLGVYYCGQGSQYPFTFGAGTKLELK
B5: 1E6-C9 Fab (Fab, V domains shown)
VH: EVQLVETGGSLVQPGKSLKLTCATSGFTFSYAWMHWVRQSPDKQLQWVAQIKAKSNNYATYYAESVEGRFTISRDDSKSSVYLQMNSLKEEDTAIYYCRGVYYGLLGLDAWGQGTSVTVSS
VL: B4 VL with S14R, Y41F, G71A, A84E, T86D, S97T, Q98H, A105S, L111I
notes: also called 1E6-B8; 1E6-B8/B9-C9-Fab
B6: 13H2-C2 Fab (Fab, V domains shown)
VH: EEELVETGGSLVQPGKSLKLTCATSGFTFSNAWMHWVRQSPDKQLEWVAQIKAKSNNYATYYAESVKGRFTISRDDSKSSVYLQMNNLKEEDTAIYYCRYVHYGLAPMDAWGQGTSVTVSS
VL: B4 VL with P45A, T77I, A84E, T86D, Y91F, S97T
notes: also called 13H2-C3

Experiments:
[1] = target: T1, Macaca fascicularis CD123 Fc-fusion protein (Macaca fascicularis); experiment: SPR Proteon XPR36, rat IgG captured, CD123-Fc analyte
T1 construct: also called cyno CD123-Fc
T1 sequence (chain, as listed by the source limits assumed): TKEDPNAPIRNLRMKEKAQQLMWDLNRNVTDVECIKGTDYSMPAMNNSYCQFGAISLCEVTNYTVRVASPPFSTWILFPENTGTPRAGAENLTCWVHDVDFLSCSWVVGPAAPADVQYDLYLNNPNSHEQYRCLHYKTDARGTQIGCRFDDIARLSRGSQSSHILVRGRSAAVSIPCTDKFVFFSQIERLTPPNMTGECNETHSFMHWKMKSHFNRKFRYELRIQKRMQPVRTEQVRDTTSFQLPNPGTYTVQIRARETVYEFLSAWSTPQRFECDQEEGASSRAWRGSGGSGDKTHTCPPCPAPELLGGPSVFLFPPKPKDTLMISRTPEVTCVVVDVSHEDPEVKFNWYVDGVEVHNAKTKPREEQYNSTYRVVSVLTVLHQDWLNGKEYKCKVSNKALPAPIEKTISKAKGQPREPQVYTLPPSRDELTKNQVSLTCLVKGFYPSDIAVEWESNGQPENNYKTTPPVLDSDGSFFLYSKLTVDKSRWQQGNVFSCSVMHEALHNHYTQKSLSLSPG
Description: (§1) Screening of anti-CD123 rat IgGs for binding affinities to human CD123 and cross-reactivities to cyno CD123 was performed with hybridoma supernatants using a Proteon XPR36 (Biorad) in a one-shot kinetics approach. A capture assay was established using a goat anti-rat IgG (112-005-071, Jackson Immuno Research). The capture antibody was coated on GLC chips (176-5011, Biorad) to approx. 8000 RU in the vertical direction using the amine coupling kit (176-2410, Biorad). […] Binding kinetics with human and cyno CD123-Fc fusion protein was measured at 100 μl/min in the horizontal direction with 120 sec. and 600 sec. for association and dissociation, respectively. The CD123-Fc proteins were used in twofold dilutions from 6 nM to 100 nM. PBSET buffer (176-2730, Biorad) was used as assay buffer. Regeneration was achieved by injection of 10 mM Glycine buffer pH 1.5 for 18 sec at 30 μl/min. Data processing and analysis was performed using ProteonManager software v3.0. Fitting of the sensorgrams was done with a 1:1 Langmuir model.

[2] = target: T2, human CD123 Strep-II tagged Fc-fusion protein (human); experiment: as above
T2 construct: also called human CD123-Fc; recombinant CD123
T2 sequence (chain, as listed by the source limits assumed): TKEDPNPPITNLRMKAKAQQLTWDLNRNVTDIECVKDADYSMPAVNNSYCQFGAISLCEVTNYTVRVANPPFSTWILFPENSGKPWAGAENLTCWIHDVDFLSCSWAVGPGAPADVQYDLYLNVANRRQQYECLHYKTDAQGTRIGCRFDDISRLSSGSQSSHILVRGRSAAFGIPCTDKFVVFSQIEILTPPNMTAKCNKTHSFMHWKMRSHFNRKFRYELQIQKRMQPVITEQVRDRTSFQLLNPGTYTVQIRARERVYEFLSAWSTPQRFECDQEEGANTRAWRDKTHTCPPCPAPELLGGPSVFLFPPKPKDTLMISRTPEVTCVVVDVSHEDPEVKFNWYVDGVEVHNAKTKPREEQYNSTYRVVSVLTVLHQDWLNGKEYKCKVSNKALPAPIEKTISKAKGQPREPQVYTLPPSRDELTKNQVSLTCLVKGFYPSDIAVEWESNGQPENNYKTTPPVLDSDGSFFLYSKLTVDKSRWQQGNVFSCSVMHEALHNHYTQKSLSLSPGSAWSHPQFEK
Description: as §1

[3] = target: T3, human CD123 (IL3RA) on cells (human, UniProt P26951 19-378); experiment: flow cytometry, CD123 transfected HEK293, hybridoma supernatant
T3 construct: also called CD123 transfected HEK293; THP-1
T3 sequence (P26951 19-378): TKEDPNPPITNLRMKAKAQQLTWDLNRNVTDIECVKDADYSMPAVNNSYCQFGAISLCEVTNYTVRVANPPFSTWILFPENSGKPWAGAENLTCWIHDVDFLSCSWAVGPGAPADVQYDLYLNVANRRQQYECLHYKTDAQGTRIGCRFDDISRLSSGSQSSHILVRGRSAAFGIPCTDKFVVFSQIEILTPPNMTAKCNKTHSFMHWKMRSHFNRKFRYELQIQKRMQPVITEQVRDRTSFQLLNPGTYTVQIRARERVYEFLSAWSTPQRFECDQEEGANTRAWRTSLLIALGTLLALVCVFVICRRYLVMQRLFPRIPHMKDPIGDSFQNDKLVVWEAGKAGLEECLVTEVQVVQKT
Description: Cells were resuspended in 200 μl Stain Buffer with FBS per well and were measured using the MACSQuant (Miltenyi Biotec) or LSRII (BD) flow cytometer. Further data analyses were performed using the FlowJo software (Tree Star, Inc.). Read out was percentage of cells positive for antibody binding. Cells treated only with the secondary but no primary antibody were used to set the gates. Curves were calculated by XLfit (Algorithm 205).

[4] = target: T4, human CD3ε/δ-Fc fusion protein (soluble recombinant CD3ε/δ complex) (human, UniProt P04234 22-105); experiment: SPR, CD3-Fc captured, Fab 100 nM
T4 construct: also called huCD3ε/δ; huCD3; not shown: hinge, CH2, CH3 of human IgG with tag
T4 sequence (chain, as listed by the source mutant, chain 1 of 2): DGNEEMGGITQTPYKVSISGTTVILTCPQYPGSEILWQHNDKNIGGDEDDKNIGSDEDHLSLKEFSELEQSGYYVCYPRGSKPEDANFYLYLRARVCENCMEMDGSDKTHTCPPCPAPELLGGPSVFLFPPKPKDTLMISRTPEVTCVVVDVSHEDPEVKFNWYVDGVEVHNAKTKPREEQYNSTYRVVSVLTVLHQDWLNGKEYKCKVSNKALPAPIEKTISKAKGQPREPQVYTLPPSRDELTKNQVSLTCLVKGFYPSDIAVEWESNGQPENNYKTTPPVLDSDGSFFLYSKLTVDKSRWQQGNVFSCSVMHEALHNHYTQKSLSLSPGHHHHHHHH
T4 sequence (P04234 22-105, stated change not applied, chain 2 of 2): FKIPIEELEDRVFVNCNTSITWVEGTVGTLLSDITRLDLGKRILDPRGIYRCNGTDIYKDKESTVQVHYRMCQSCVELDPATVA
Description: (§2) Binding was tested by SPR using a BIAcore3000 instrument run with HBS-EP buffer. Recombinant huCD3 proteins (ε/δ (PB01226), ε/γ (PB01225)) were captured at 10 μl/min via Fc-tag by anti-human Fc capture antibody MAB1302 (Millipore) immobilized on a CM5 sensor chip. Anti-CD3 Fabs were used as analytes at 100 nM with association and dissociation times of 240 sec and 300 sec, respectively at 30 μl/min. After each cycle the surfaces were regenerated by a 2 min pulse of 10 mM glycine buffer pH2.5.

[5] = target: recombinant huCD3ε/γ protein with Fc-tag (PB01225) (human, UniProt P07766 23-126; P09693 23-116); experiment: SPR, CD3-Fc captured, Fab 100 nM
Description: as §2

[6] = target: T5, human CD3ε expressed alone on HEK293F cells (human, UniProt P07766 23-207); experiment: flow cytometry, transfected HEK293F
T5 construct: also called huCD3ε
Description: (§3) To analyze binding of antibodies to human CD3ε and human CD3δ expressed on the surface of cells, HEK293F cells were transfected with both constructs either alone or in co-transfection and signals were measured by flow cytometry. For transfection procedure FuGENE HD Transfection Reagent (Promega, #E2311) was used according to manufacturer's protocol.
(§4) Antibodies for staining were seeded at 1 μg in 50 μl per well Stain Buffer with FBS (BD Pharmingen) in 96-well U-bottom suspension culture plates (Greiner bio-one). Harvested transfected cells were resuspended in Stain Buffer with FBS and were added at 50 μl per well to the antibodies. Cells were incubated at 4° C. in the dark for 30 min and were washed twice. 0.5 μg secondary antibody Goat F(ab′)2 Anti-Human IgG-FITC (Beckman Coulter, #732598) or Goat F(ab′)2 Anti-Human kappa-PE (Southern Biotech, #206209), respectively, in combination with 0.5 μg 7-AAD per well was added in 100 μl Stain Buffer with FBS. Cells were incubated at 4° C. in the dark for 15 min and were washed twice. For measurement, cells were resuspended in 200 μl Stain Buffer with FBS. Cells were measured using the MACSQuant (Miltenyi Biotec) or LSRII (BD) flow cytometer, respectively. Further data analyses were performed using the FlowJo software (Tree Star, Inc.).

[7] = target: T6, human CD3ε and CD3δ co-expressed on HEK293F cells (human, UniProt P07766 23-207; P04234 22-171); experiment: flow cytometry, transfected HEK293F
T6 construct: also called huCD3ε/δ (transfected cells); huCD3e + huCD3d
Description: as §3, §4

[8] = target: T7, human CD3 (TCR complex) on primary human T cells or Jurkat cells (human, UniProt P07766 23-207); experiment: flow cytometry, primary human T cells
T7 construct: on the cells it stands in the whole TCR/CD3 complex; also called Jurkat E6-1 (expressing human TCR)
Description: The binding capacity of the CD3-Fabs was determined by flow cytometry. Primary human T cells were used as target cells. Therefore, peripheral blood mononuclear cells (PBMCs) were isolated from 200 ml peripheral blood of healthy donors treated with EDTA by Ficoll density centrifugation. 15 ml Histopaque (Sigma-Aldrich) was preloaded on a 50 ml Leucosep-Tube (Greiner bio-one). Blood was diluted with autoMACS Rinsing Buffer+1% BSA (Miltenyi Biotec) and loaded on the membrane of a total of ten prepared tubes. Tubes were centrifuged without brake for 10 min at 1000 xg. PBMCs were collected and washed with autoMACS Rinsing Buffer+1% BSA three times. Finally, PBMCs were resuspended in autoMACS Running Buffer (Miltenyi Biotec) for isolation of T lymphocytes by autoMACSpro technology using the Pan T Cell isolation Kit (Miltenyi Biotec) according to manufacturer's instructions. Purity of separated T cells was analyzed by MACSQuant flow cytometry using the human 7-Color Immunophenotyping Kit (Miltenyi Biotec). Isolated T cells were resuspended in Stain Buffer with FBS (BD Pharmingen) and 1E5 cells in 100 μl per well were seeded in 96-well U-bottom suspension culture plates (Greiner bio-one). Fab antibodies were diluted 1:3 in serial in PBS (Invitrogen) and 5 μl each were added to the cells at a final maximum concentration of 30000 ng/ml. The assay was incubated for 45 min at 4° C. Cells were washed twice with Stain Buffer with FBS and 1 μg secondary antibody Goat F(ab′)2 Anti-Human kappa-FITC (Beckman Coulter, #732621) per well was added in 100 μl Stain Buffer with FBS per well. The assay was incubated for 20 min at 4° C. and washed twice afterwards. Cells were resuspended in 150 μl Stain Buffer with FBS per well and were measured using the MACSQuant (Miltenyi Biotec) or LSRII (BD) flow cytometer. Further data analyses were performed using the FlowJo software (Tree Star, Inc.). Read out was percentage of cells positive for antibody binding. Cells treated only with the secondary but no primary antibody were used to set the gates. EC50 Curves were calculated by XLfit (Algorithm 205), EC50 values were calculated as inflection point of the slope (data are shown in table 6).

[9] = target: T4, human CD3ε/δ-Fc fusion protein (soluble …); experiment: SPR Biacore, CD3εδ-Fc captured, Fab analyte
Description: Binding affinities of anti-CD3 binding Fabs or CODV-Fabs were measured by surface plasmon resonance (SPR) using a Biacore3000 instrument (GE Healthcare). Assay buffer was HBS-EP (BR-1001-88, GE Healthcare). Capture of CD3ε/δ-Fc fusion proteins was achieved using the human antibody capture kit (GE Healthcare). […] The CD3εδ-Fc fusions proteins were captured at 10 μl/min to approx. 70 RU to yield Rmax values of 30 RU. Binding kinetics with the anti-CD3 Fabs or CODV-Fabs was measured at 30 μl/min for 240 sec. and 600 sec. for association and dissociation phase, respectively. Twofold dilutions of Fabs from 3 to 400 nM in assay buffer were used. All Fab concentrations were run in duplicate together with duplicate buffer blanks for double referencing. Regeneration of the capture surface was performed with a 1 min injection of 3M MgCl2 solution at 30 μl/min. For data analysis the BIAevaluation software v.4.1 (GE Healthcare) was used. Data were fit globally using a 1:1 Langmuir model with mass transfer.

[10] = target: T8, human CD3δ expressed alone on HEK293F cells (human, UniProt P04234 22-171); experiment: flow cytometry, HEK293F transfected with huCD3δ
T8 construct: entry includes the signal peptide; also called huCD3δ
T8 sequence (P04234 22-171 limits assumed, stated change not applied): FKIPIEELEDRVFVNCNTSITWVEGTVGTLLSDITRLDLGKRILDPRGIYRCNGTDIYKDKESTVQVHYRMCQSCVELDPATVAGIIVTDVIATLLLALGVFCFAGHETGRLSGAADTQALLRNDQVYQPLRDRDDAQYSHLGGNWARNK
Description: as §3
Cells were incubated on a shaker at 37° C. and 5% CO2. At day one to three after transfection cells were harvested and binding of antibodies was analyzed by flow cytometry.
as §4

Binder | Kd [1] [nM] | Kd [2] [nM] | koff [2] [s⁻¹] | kon [2] [M⁻¹ s⁻¹] | EC50 [3] [ng/mL] | RU of Fab binding at 100 nM [4] [RU] | RU of Fab binding at 100 nM [5] [RU] | % antibody positive transfected cells [6] [%] | % antibody positive transfected cells [7] [%] | EC50 [8] [nM] | Kd [9] [nM] | koff [9] [s⁻¹] | kon [9] [M⁻¹ s⁻¹] | binding result [10]
B1 | 0.5 | 0.04 | 6.7e-06 | 180000 | 1.3 |  |  |  |  |  |  |  |  | 
B2 | 0.17 | 0.19 | 0.00028 | 1.5e+06 | 1.2 |  |  |  |  |  |  |  |  | 
B3 | 0.07 | 0.3 | 0.00032 | 1e+06 | 0.9 |  |  |  |  |  |  |  |  | 
B4 |  |  |  |  |  | 10 | 3 | 95 | 97 | 1.7 | 4.4 | 0.0011 | 250000 | no binding (tested: <20% of binding of huCD3e + huCD3d)
B5 |  |  |  |  |  | 10 | 7 | 87.7 | 91.7 | 18.7 | 41 | 0.0039 | 93000 | no binding (tested: <20% of binding of huCD3e + huCD3d)
B6 |  |  |  |  |  | 9 | 6 | 93.3 | 93 | 14.3 | 29 | 0.0049 | 170000 | no binding (tested: <20% of binding of huCD3e + huCD3d)
